Test results: paper PMC10834534, “The NMR structure of the Ea22 lysogenic developmental protein from lambda bacteriophage” (Scientific Reports, 2024)

Biological target: the molecule itself
Assay: NMR solution structure; 0.6 mM in 5 mM Tris-Cl pH 7.6, 50 mM NaCl, 0.05% NaN3, 308 K; intermolecular distance restraints from a 3D 13C-filtered/13C-separated NOESY on a mixed 12C/13C sample

B1: carboxy-terminal domain (CTD) fragment of λ Ea22 (102–182) (domain or fragment, bacteriophage λ)
chain: SNEVREDGNQFLVVRHPGKTPVIKHCTGDLEEFLRQLIEQDPLVTIDIITHRYYGVGGQWVQDAGEYLHMMSDAGIRIKGEIETAV
notes: Ea22 of bacteriophage lambda, carboxy-terminal domain, residues 102-182 of the 182-residue protein; gene synthesized by ATUM, in plasmid pD441NH; Uniformly 13C,15N (or 15N) labelled for NMR; a mixed 12C/13C dimer was made by mixing 12C/14N and 13C/15N proteins 1:1 in 6 M urea and diluting rapidly; Dimer printed as 21.4 kDa; also called λ Ea22 CTD; Ea22 CTD; not shown: 6xHis, N-terminal, kept
stoichiometry N: 2
